The data set deals with the molecule itself. Description: cryo-EM structure; purified apo Rpd3S complex; 3D map of 3.5 Å.

B1: Rco1 (natural protein, Saccharomyces cerevisiae, UniProt Q04779 1-684, looked up)
chain: MDTSKKDTTRSPSHSNSSSPSSSSLSSSSSKEKKRPKRLSSQNVNYDLKRRKIITSEGIERSFKNEHSNLAVEDNIPEEEPKELLEKDSKGNIIKLNEPSTISEDSKVSVTGLPLNKGPSEKIKRESLWNYRKNLGGQSNNSEMTLVPSKRFTQVPKNFQDLNRNDLKTFLTENMTEESNIRSTIGWNGDIINRTRDREPESDRDNKKLSNIRTKIILSTNATYDSKSKLFGQNSIKSTSNASEKIFRDKNNSTIDFENEDFCSACNQSGSFLCCDTCPKSFHFLCLDPPIDPNNLPKGDWHCNECKFKIFINNSMATLKKIESNFIKQNNNVKIFAKLLFNIDSHNPKQFQLPNYIKETFPAVKTGSRGQYSDENDKIPLTDRQLFNTSYGQSITKLDSYNPDTHIDSNSGKFLICYKCNQTRLGSWSHPENSRLIMTCDYCQTPWHLDCVPRASFKNLGSKWKCPLHSPTKVYKKIHHCQEDNSVNYKVWKKQRLINKKNQLYYEPLQKIGYQNNGNIQIIPTTSHTDYDFNQDFKITQIDENSIKYDFFDKIYKSKMVQKRKLFQFQESLIDKLVSNGSQNGNSEDNMVKDIASLIYFQVSNNDKSSNNKSASKSNNLRKLWDLKELTNVVVPNELDSIQFNDFSSDEIKHLLYLKKIIESKPKEELLKFLNIENPENQSE
notes: Rco1, Saccharomyces cerevisiae; two copies (Rco1A, Rco1B) stand in the Rpd3S complex; also called Rco1A; Rco1B; source: High Five insect cells (baculovirus), co-expressed with the other Rpd3S subunits; purified as part of the complex (streptavidin column, Resource Q, gel filtration); not shown: double StrepII, C-terminal, kept
Consider B1, for which the binding result was “binds”.
